No end group written: not given here.
T1: tetratricopeptide repeat (TPR) domain of S. cerevisiae PEX5 (Gal4pBD-TPR, plasmid pAH987) (S. cerevisiae)
T1 sequence (P35056 whole entry, looked up): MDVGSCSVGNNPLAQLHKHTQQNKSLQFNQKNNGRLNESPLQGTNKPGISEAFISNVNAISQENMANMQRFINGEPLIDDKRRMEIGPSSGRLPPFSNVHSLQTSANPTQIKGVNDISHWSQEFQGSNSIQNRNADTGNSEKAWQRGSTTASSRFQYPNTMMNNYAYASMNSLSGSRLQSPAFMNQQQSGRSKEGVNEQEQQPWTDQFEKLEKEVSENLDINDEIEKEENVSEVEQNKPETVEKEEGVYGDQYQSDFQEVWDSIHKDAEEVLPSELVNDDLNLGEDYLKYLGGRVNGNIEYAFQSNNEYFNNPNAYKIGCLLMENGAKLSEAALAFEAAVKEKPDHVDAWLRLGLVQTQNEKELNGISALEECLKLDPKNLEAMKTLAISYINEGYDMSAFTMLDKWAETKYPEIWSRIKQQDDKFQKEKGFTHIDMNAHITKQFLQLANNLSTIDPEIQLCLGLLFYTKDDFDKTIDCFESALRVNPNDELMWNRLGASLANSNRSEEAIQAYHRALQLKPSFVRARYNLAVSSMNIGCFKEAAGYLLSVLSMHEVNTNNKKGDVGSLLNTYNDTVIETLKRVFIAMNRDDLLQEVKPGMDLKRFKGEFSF


Legend:
[1] = target: T1, tetratricopeptide repeat (TPR) domain of S. cerevisiae PEX5 (Gal4pBD-TPR, plasmid pAH987) (S. cerevisiae); experiment: two-hybrid; yeast strain PCY3 co-transformed with Gal4pAD-16mer (pGAD.GH) and Gal4pBD-TPR of PEX5 (pAH987 yeast or hP87 human); quantitative beta-galactosidase activity, cells grown in SC-leu-trp at 30°C; lower limit of around 10 Miller Units per mg protein for a productive interaction
[2] = target: tetratricopeptide repeat (TPR) domain of human PEX5 (Gal4pBD-TPR, plasmid hP87) (Homo sapiens); experiment: as above

| Molecule | beta-galactosidase activity (Units/mg protein) [1] | beta-galactosidase activity (Units/mg protein) [2] |
| --- | --- | --- |
| carboxy-terminal 16-mer of yeast mitochondrial ribosomal protein L2, or MRP7 (Gal4pAD-16mer) (peptide) | 482 | – |
| EKGIKYKFEVYEKSKL [carboxy-terminal 16 residues of the DHFR-SKL construct (Gal4pAD-16mer)] | 195 | – |
| EEVIRKIAEGLNKAKF (not fully specified (N-terminus)) [carboxy-terminal 16-mer of Archaeoglobus fulgidus 2-nitropropane dioxygenase (Gal4pAD-16mer)] | 206 | – |
| HCKGKDLSKYLASCNL [carboxy-terminal 16-mer of dog lysozyme C from milk (Gal4pAD-16mer)] | – | 25 |
| RCKGTDVQAWIRGCRL [carboxy-terminal 16-mer of hen egg-white lysozyme (Gal4pAD-16mer)] | – | 73 |
| LLMEKEDYHSLYQSHL [carboxy-terminal 16-mer of human tyrosinase (Gal4pAD-16mer)] | – | 242 |
| GMGRREGHPDVGPARL [carboxy-terminal 16-mer of Methanopyrus kandleri riboflavin synthase (Gal4pAD-16mer)] | 45 | 358 |
| LLMEAEDYQATYQSNL [carboxy-terminal 16-mer of frog tyrosinase (Gal4pAD-16mer)] | – | 91 |
| FDRDQNRVGLAEAARL (not fully specified (N-terminus)) [carboxy-terminal 16-mer of the precursor of lysosomal bovine cathepsin D (Gal4pAD-16mer)] | – | 310 |
| FAVDQRKLEDLLAAKL [carboxy-terminal 16-mer of E. coli transaldolase A (Gal4pAD-16mer)] | 164 | 566 |
| DINNTIDAARRVFAKL (not fully specified (N-terminus)) [carboxy-terminal 16-mer of Escherichia coli glutamate-1-semialdehyde 2,1-aminomutase (Gal4pAD-16mer)] | 270 | 473 |
| PLKDKQLYANEGVSRL (not fully specified (N-terminus)) [carboxy-terminal 16-mer of Drosophila sevenless protein (Gal4pAD-16mer)] | – | 29 |

Source: PMC545800
